Reference: patent US20240083991A1 (Pfizer, published 2024)
Residue numbers refer to the chain shown, from its start.

T1: human mature BMP9 (human, UniProt Q9UK05 320-429)
T1 sequence: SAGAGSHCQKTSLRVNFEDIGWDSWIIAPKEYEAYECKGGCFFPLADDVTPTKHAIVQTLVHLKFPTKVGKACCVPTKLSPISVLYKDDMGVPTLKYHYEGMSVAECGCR

T2: human GDF8 (human, UniProt O14793 267-375)
T2 sequence (looked up): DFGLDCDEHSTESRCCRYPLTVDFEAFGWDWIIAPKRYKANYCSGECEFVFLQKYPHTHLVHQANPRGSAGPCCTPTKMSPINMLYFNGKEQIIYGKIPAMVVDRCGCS

T3: rat BMP9 (mature) (rat, UniProt M0RB87 320-430, Chemically biotinylated for capture on the SPR chip; sites not stated. Natural mature BMP9 is a disulfide-linked homodimer; one monomer chain is given.)
T3 construct: Biotinylated for SPR capture; also called Rat BMP9-biotin
T3 sequence: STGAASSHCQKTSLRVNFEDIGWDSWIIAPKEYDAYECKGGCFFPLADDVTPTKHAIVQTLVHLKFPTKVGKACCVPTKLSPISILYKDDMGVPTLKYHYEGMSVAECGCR

T4: cyno BMP9 (mature) (cynomolgus monkey, UniProt G7PEU8 320-429)
T4 construct: mature; Biotinylated for SPR capture; also called Cyno BMP9-biotin; cynomolgus monkey BMP9
T4 sequence: T1 sequence with A2T, D23N, V84I

B1: Ab93 (antibody, human IgG1, lambda, V domains shown)
VH: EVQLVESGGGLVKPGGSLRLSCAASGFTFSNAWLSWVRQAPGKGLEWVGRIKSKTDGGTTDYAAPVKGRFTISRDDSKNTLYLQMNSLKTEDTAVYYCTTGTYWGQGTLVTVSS
VL: QSVLTQPPSASGTPGQRVTISCSVTNSDIDIDNVHWYQQLPGMAPKLLFFHDYRPSGVSDRFSGSKSGTSASLAIVGLQSEDEGYYYCAGLDVAMRGPVFGGGTKLTVLG
notes: Parental clone converted to human IgG1/lambda; The heavy chain can be prepared with or without the C-terminal lysine; also called BMP9-0093
B2: Ab804 (antibody, human IgG1, lambda, V domains shown)
VH: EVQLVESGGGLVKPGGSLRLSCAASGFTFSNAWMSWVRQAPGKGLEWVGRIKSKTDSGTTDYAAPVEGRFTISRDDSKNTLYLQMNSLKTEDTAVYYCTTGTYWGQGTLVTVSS
VL: B1 VL with S27P, D32F, M43T, D52E, V93E
notes: Optimized variant of Ab93; The heavy chain can be prepared with or without the C-terminal lysine
B3: Ab732 (antibody, human IgG1, lambda, V domains shown)
VH: QVQLVQSGAEVKKPGASVKVSCKASGYTFTSYGISWVRQAPGQGLEWMGWISAYIGNTNYAQKLQGRVTMTTDTSISTAYMELSRLRSDDTAVYYCARAYYMDVWGQGTTVTVSS
VL: NFMLTQPHSVSESPGKTVTISCTGSSGNIASNYVQWYQQRPGSAPTTVIYEDKQRPSGVPDRFSGSIDRSSNSASLTISGLKTEDEADYYCQSYDNHLSVVFGGGTKLTVLG
B4: Ab101 (antibody, human IgG1, lambda, V domains shown)
VH: B3 VH with I55N, I76T, S84R, R85S, Y101G
VL: B3 VL with N28S, H97S
notes: Parental clone converted to human IgG1/lambda; The heavy chain can be prepared with or without the C-terminal lysine; also called BMP9-0101
B5: Ab352 (antibody, human IgG1, lambda, V domains shown)
VH: EVQLVESGGGLVQPGGSLRLSCAASGFTFSNAWMSWVRQAPGKGLEWVGRIKSKTDSGTTDYAAPVKGRFTISRDNAKNSLYLQMNSLRAEDTAVYYCTTGTYWGQGTLVTVSS
VL: B1 VL with D32F, M43T, V76S, Q79R, G84A, Y85D
notes: as for B2
B6: Ab100 (antibody, human IgG1, lambda, V domains shown)
VH: QMQLVQSGAEVKKPGSSVKVSCKASGGTFSSYAISWVRQAPGQGLEWMGGIIPIFGTANYAQKFQGRVTITADESTSTAYMELSSLRSEDTAVYYCARVQLDLSYYYYYGMDVWGQGTTVTVSS
VL: QSALTQPASVSGSPGQSITISCTGTSSDVGSYNLVSWYQQHPGKAPKLMIYEVSKRPSGVSDRFSGSKSANTASLTISGLQAEDEADYYCSSFSINGPSFVFGTGTKVTVLG
notes: Parental anti-BMP9 antibody, human IgG1/lambda; The heavy chain can be prepared with or without the C-terminal lysine
B7: Ab89 (antibody, human IgG1, lambda, V domains shown)
VH: QVQLVQSGAEVKKPGASVKVSCKASGYTFTSYYMHWVRQAPGQGLEWMGIINPSGGSTSYAQKFQGRVTMTRDTSTSTVYMELSSLRSEDTAVYYCASRDYYGSGRVYYYYGMDVWGQGTTVTVSS
VL: B3 VL with N28S, K53N, R69S, N96S, H97S, L98I, S99H
notes: Parental anti-BMP9 antibody from a human phage library, human IgG1/lambda; The heavy chain can be prepared with or without the C-terminal lysine
B8: Ab1076 Fab (Fab, V domains shown)
VH: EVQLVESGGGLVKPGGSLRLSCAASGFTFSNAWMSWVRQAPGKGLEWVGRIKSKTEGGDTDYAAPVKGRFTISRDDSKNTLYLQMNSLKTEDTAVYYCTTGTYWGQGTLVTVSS
VL: B1 VL with S27T, D32F, M43T, V93E
notes: Monovalent Fab fragment of Ab1076; also called Ab1076 Fab fragment

Legend:
[1] = biological target: T1, human mature BMP9; assay: cell-based or functional assay
[2] = biological target: T1, human mature BMP9; assay: cell-based or functional assay; remark: listed apart in the source
[3] = biological target: T1, human mature BMP9; assay: competition ELISA: antibody mixed with 15 nM BMP9-biotin, binding to coated ActRIIB (5 µg/ml) detected
Experimental: (§1) For competition ELISAs, each receptor protein was coated on a 384-well ELISA plate at its optimal coating concentration, 20 μl/well in PBS-CMF at 4° C. overnight. The next day, plates were washed 3 times with PBS+0.05% TWEEN™ 20 and blocked with PBS+1% BSA for 1 hr at RT with shaking. Anti-BMP9 Abs were serially diluted 3-fold in PBS+1% BSA, starting from 100 nM, then mixed with the same volume of the optimal concentration of biotinylated BMP9. The final concentration of biotinylated BMP9 corresponded to the EC₉₀ for each receptor, as determined in a preliminary experiment described above.
(§2) Serially diluted Abs were incubated with biotinylated BMP9 for at least 15 min at RT. Plates were washed as before, followed by addition of serially diluted Abs and the biotinylated BMP9 mixture. After incubating for 1 hr at RT, plates were washed 3 times with PBS+0.05% TWEEN™ 20. Secondary antibody was added (HRP-Streptavidin from BioLegend, cat #405210, 1:2000), followed by 1 hr incubation at RT. Plates were washed as before, signal was developed using TMB substrate, and the reaction stopped with 0.18 M H₂SO₄. Absorbance was read at 450 nm on an ENVISION® plate reader (Perkin Elmer).

[4] = biological target: T1, human mature BMP9; assay: competition ELISA: antibody mixed with 5 nM BMP9-biotin, binding to coated ActRIIA (5 µg/ml) detected
Experimental: as §1, §2

[5] = biological target: T1, human mature BMP9; assay: competition ELISA: antibody mixed with 1.5 nM BMP9-biotin, binding to coated BMPRII (2 µg/ml) detected
Experimental: as §1, §2

[6] = biological target: T1, human mature BMP9; assay: competition ELISA: antibody mixed with 0.6 nM BMP9-biotin, binding to coated BMPRII (1 µg/ml) detected
Experimental: as §1, §2

[7] = biological target: T2, human GDF8; assay: cell-based or functional assay
[8] = biological target: T3, rat BMP9 (mature); assay: SPR (Biacore T200), 37° C., biotinylated BMP9 captured on Sensor Chip CAP, Fab as analyte, 1:1 model
Experimental: (§3) The running and sample buffer was 10 mM HEPES pH 7.4, 0.15 M NaCl, 3 mM EDTA, 0.05% P-20 (HBS-EP+). Biotinylated mature human, cyno, and rat BMP9 proteins were reversibly captured onto a Sensor Chip CAP using the Biotin CAPture Reagent (Cytiva, 28920234) according to the manufacturer's instructions. The final capture level of human BMP9 was 100 resonance units (RU), cyno BMP9 was 50 RU, and rat BMP9 was 60 RU. Flow cell 1, without BMP9, was used as a reference flow cell. A two-fold dilution series of the Ab1076 Fab ranging from 100 nM to 6.2 nM was injected for 60 seconds at a flow rate of 100 μl per minute and the dissociation was monitored for 1800 seconds. Rate constants and affinities were determined by fitting the double referenced sensorgram data to a 1:1 model in BIACORE™ Insight Evaluation software version 3.0.1.12.15655 (Cytiva).

[9] = biological target: T4, cyno BMP9 (mature); assay: as above
Experimental: as §3

[10] = biological target: T1, human mature BMP9; assay: as above
Experimental: as §3

Binder	IC50 (read off the curve): BMP9-induced pSMAD1/5/9 nuclear translocation, TIME cells [2] [nM]	IC50 (read off the curve) [3] [nM]	IC50 (read off the curve) [4] [nM]	IC50 (read off the curve) [5] [nM]	IC50 (read off the curve) [6] [nM]	further results
B1	~0.1	~7	~1	~4	~0.5	IC50 (read off the curve): BMP9-induced pSMAD2 nuclear translocation, TIME cells [1]: ~0.08 nM
B2					~0.2	
B3						IC50 (read off the curve): GDF8-induced CAGA-luciferase activity, C2C12 reporter cells [7]: ~600 nM
B4	~80	~10	~3			
B5	~0.05				~0.2	
B6		~8	~3	~4		
B7		~8	~2	~4		
B8						Kd [8]: 0.0986 nM; koff [8]: 5.14e-05 s⁻¹; kon [8]: 532000 M⁻¹ s⁻¹; Kd [9]: 0.0658 nM; koff [9]: 3.84e-05 s⁻¹; kon [9]: 585000 M⁻¹ s⁻¹; Kd [10]: 0.0874 nM; koff [10]: 3.84e-05 s⁻¹; kon [10]: 440000 M⁻¹ s⁻¹
